Measured values taken from US7419813B2, “Fructosyl peptide oxidase” (Kikkoman Corporation, priority 2001, dated 2008).

B1: Coniochaeta sp. NISL 9330: fructosyl peptide oxidase produced by Coniochaeta sp. NISL 9330 (FERM BP-7798) with less action on ε-fructosyl lysine; amino acid sequence SEQ ID NO: 1 (protein, listed as Coniochaeta sp.)
chain: MTSNRADTRVIVVGGGGTIGSSTALHLVRSGYAPANITVLDTFEIPSAQSAGHDLNKIMGIRLRNKVDLQMSLEARQMWKEDELFQPFFHNTGRMDCEHTPEGIEDLKKQYQALHDAGAGLEKTHAWLDNEDEILSKMPLLQRDQIQGWKAIWSQDGGWLAAAKAINAIGQFLKERGVKFGFGGAGSFKQPLFDDEGTTCIGVETADGTKYYADKVVLAAGAWSPTLVDLEDQCCSKAWVYAHIQLTPEEAAEYKGVPVVYNGEFGFFFEPNEFGVIKVCDEFPGFSRFKEHQPYGAPSPKHISVPRSHAKHPTDTYPDASEVSIKKAIATFLPRFQDKELFNRALCWCTDTADAALLMCEHPKWKNFILATGDSGHSFKILPNVGKHVVELIEGRLPEEMAYQWRWRPGGDALKSRRAAPPKDLADMPGWKHDPKL
B2: Eupenicillium terrenum ATCC 18547: fructosyl peptide oxidase produced by Eupenicillium terrenum ATCC 18547 with less action on ε-fructosyl lysine; amino acid sequence SEQ ID NO: 3 (protein, listed as Eupenicillium terrenum)
chain: MAHSRASTKVVVVGGGGTIGSSTALHLIRSGYTPSNITVLDVYKTPSLQSAGHDLNKIMGIRLRNGPDLQLSLESLDMWQNDELFKPFFHQVGMIDCSSSKEGIENLRRKYQTLLDAGIGLEKTNVWLESEDEILAKAPNFTREQVKGWKGLFCTDGGWLAAAKAINAIGIFLQDKGVKFGFGGAGTFQQPLFAADGKTCIGLETTDGTKYFADKVVLAAGAWSPTLVDLEDQCVSKAWVFAHIQLTPKEADAYKNVPVVYDGEYGFFFEPNEYGVIKVCDEFPGFSRFKLHQPYGAASPKMISVPRSHAKHPTDTYPDASEVTIRKAIARFLPEFKDKELFNRTMCWCTDTADANLLICEHPKWKNFILATGDSGHSFKLLPNIGKHVVELLEGSLSQEMAGAWRWRPGGDALRSRRGAPAKDLAEMPGWKHDAHL

Experiments:
Format in all cases: biochemical
[1] = Enzyme activity assay (hydrogen peroxide, POD-4-AA colour at 510 nm), fructosyl valyl histidine substrate; conditions: for Substrate specificity (% relative activity) FVH / Activity per medium: crude enzyme sample; for action on fructosyl valyl histidine and ε-fructosyl lysine (in words): crude enzyme samples of Tables 1 and 2
Excerpt: Enzyme activities of the oxidase of the invention and the oxidase of the invention that have less action on ε-fructosyl lysine (hereinafter, the term “the oxidases of the invention” may comprise both the oxidase of the invention and the oxidase of the invention that have less action on ε-fructosyl lysine) may principally be determined by determining the amount of α-ketoaldehyde, peptide, hydrogen peroxide or the like which are produced through enzyme reaction or by determining the amount of oxygen consumed by the enzyme reaction. Hereinafter, a method for determining the amount of hydrogen peroxide will be described as one example. Unless otherwise noted, fructosyl valyl histidine is used as a substrate for determining the activities of the oxidases of the invention. Titer of the enzyme is defined such that an amount of enzyme for producing 1 μmol hydrogen peroxide per minute is 1U as determined using a fructosyl valyl histidine substrate. 1.0 kU of peroxidase (Toyobo Co., Ltd, TYPE III) and 100 mg of 4-aminoantipyrine (Tokyo Kasei Kogyo Co., Ltd.) are dissolved in 0.1 M potassium phosphate buffer (pH 8.0) to a constant volume of 1L. 25 ml of a commercially available 2% solution (available from Nacalai Tesque, Inc.) is dissolved in ion exchange water to a constant volume of 100 ml. 624 mg of fructosyl valyl histidine is dissolved in ion exchange water to a constant volume of 10 ml. Alternatively, fructosyl glycine or ε-fructosyl lysine of 357 mg or 462 mg, respectively, may be dissolved in ion exchange water to a constant volume of 10 ml to be used as a substrate. Fructosyl valine histidine was prepared as described in Japanese Patent Application Laid-Open (kohyo) No. 2001-95598. Fructosyl glycine and ε-fructosyl lysine were prepared according to a method of Horiuchi et al. (Agric. Biol. Chem., 53, 103-110, 1989; Agric. Biol. Chem., 55, 333-338, 1991). 2.7 ml of Reagent 1, 100 μl of Reagent 2 and 100 μl of enzyme solution are mixed and pre-heated at 30° C. for 5 minutes. Then, 100 μl of Reagent 3 is added and thoroughly mixed to determine absorbance at 510 nm using a spectrophotometer (U-[…], Hitachi, Ltd.). Measurement values indicate changes in the absorbance per minute at 510 nm after 1 to 3 minutes. A control solution was prepared in the same manner as described above except 100 μl ion exchange water was added instead of 100 μl Reagent 3. A standard solution of hydrogen peroxide and ion exchange water were used instead of Reagent 3 and the enzyme solution, respectively, to prepare a graph showing relationship with respect to the level of color. Referring to this graph, micromole of hydrogen peroxide produced per minute at 30° C. is calculated and used as the unit for expressing the activity of the enzyme solution. The presence of action on ε-fructosyl lysine can be determined in the same manner by using Reagent 3 (substrate solution) containing ε-fructosyl lysine substrate instead of fructosyl valyl histidine substrate.

[2] = Enzyme activity assay, ε-fructosyl lysine substrate; conditions: for Substrate specificity (% relative activity) εFL: crude enzyme sample; for relative activity for ε-fructosyl lysine: purified oxidase, compared to 100% activity for fructosyl valyl histidine
Excerpt: (§1) Enzyme activities of the oxidase of the invention and the oxidase of the invention that have less action on ε-fructosyl lysine (hereinafter, the term “the oxidases of the invention” may comprise both the oxidase of the invention and the oxidase of the invention that have less action on ε-fructosyl lysine) may principally be determined by determining the amount of α-ketoaldehyde, peptide, hydrogen peroxide or the like which are produced through enzyme reaction or by determining the amount of oxygen consumed by the enzyme reaction. Hereinafter, a method for determining the amount of hydrogen peroxide will be described as one example. Unless otherwise noted, fructosyl valyl histidine is used as a substrate for determining the activities of the oxidases of the invention. Titer of the enzyme is defined such that an amount of enzyme for producing 1 μmol hydrogen peroxide per minute is 1U as determined using a fructosyl valyl histidine substrate. 624 mg of fructosyl valyl histidine is dissolved in ion exchange water to a constant volume of 10 ml. Alternatively, fructosyl glycine or ε-fructosyl lysine of 357 mg or 462 mg, respectively, may be dissolved in ion exchange water to a constant volume of 10 ml to be used as a substrate. Fructosyl valine histidine was prepared as described in Japanese Patent Application Laid-Open (kohyo) No. 2001-95598. Fructosyl glycine and ε-fructosyl lysine were prepared according to a method of Horiuchi et al. (Agric. Biol. Chem., 53, 103-110, 1989; Agric. Biol. Chem., 55, 333-338, 1991). 2.7 ml of Reagent 1, 100 μl of Reagent 2 and 100 μl of enzyme solution are mixed and pre-heated at 30° C. for 5 minutes. Then, 100 μl of Reagent 3 is added and thoroughly mixed to determine absorbance at 510 nm using a spectrophotometer (U-[…], Hitachi, Ltd.). Measurement values indicate changes in the absorbance per minute at 510 nm after 1 to 3 minutes. A control solution was prepared in the same manner as described above except 100 μl ion exchange water was added instead of 100 μl Reagent 3. A standard solution of hydrogen peroxide and ion exchange water were used instead of Reagent 3 and the enzyme solution, respectively, to prepare a graph showing relationship with respect to the level of color. Referring to this graph, micromole of hydrogen peroxide produced per minute at 30° C. is calculated and used as the unit for expressing the activity of the enzyme solution. The presence of action on ε-fructosyl lysine can be determined in the same manner by using Reagent 3 (substrate solution) containing ε-fructosyl lysine substrate instead of fructosyl valyl histidine substrate.

[3] = Reaction assay in 96-well plate with fructosyl glycine (control substrate); conditions: purified enzyme; control substrate set to 100%
Protocol: Fructosyl glycine (4.5 mg) was dissolved in 1 ml of water.
Developer solution consisted of the following materials:
• (a) Enzyme purified from Achaetomiella virescens ATCC 32393 • (b) Enzyme purified from Eupenicillium terrenum ATCC 18547 • (c) Enzyme purified from Coniochaeta sp. NISL 9330 (FERM BP-7798) • (d) 20 mM phosphate buffer, pH 8.0 (2) Reaction Assay
Reaction substrate (D: a, b) (20 μl), developer solution (E) (20 μl) and the inventive oxidase (F: a-d) (10 μl) were mixed in 96-well assay plates for reaction. Each plate was monitored at 510 nm using a plate reader (Immuno Mini NJ-2300, available from Nalge Nunc International K. K.) for 70 minutes. The results are shown as % relative activity when compared to 100% activity for fructosyl glycine (Table 4). […] It was confirmed that all of the inventive oxidases were reactive with the protease-digested products of α-glycated hexapeptide.

[4] = Enzyme activity assay, fructosyl glycine substrate; conditions: for Substrate specificity (% relative activity) FG: crude enzyme sample; for relative activity for fructosyl glycine: purified oxidase, compared to 100% activity for fructosyl valyl histidine
Excerpt: as §1

[5] = relative to activity for ε-fructosyl lysine (100%)
[6] = strain cultured on enzyme inducible medium 1 at 30° C. for 4 days, Tables 1 and 2
[7] = reference substrate set to 100%
[8] = relative to activity for fructosyl valyl histidine (100%)

Row | Activity per medium [1, 6] [U/L] | Activity per medium ([1]; Eupenicillium strains on enzyme induction media 1 at 30° C. for 4 days, Table 3) [U/L] | Molecule | Substrate specificity (% relative activity) FVH [1, 5] [%] | action on fructosyl valyl histidine and ε-fructosyl lysine (in words) [1] | Substrate specificity (% relative activity) εFL [2, 7] [%] | relative activity for ε-fructosyl lysine [2] [%] | % relative activity on fructosyl glycine [3] [%] | Substrate specificity (% relative activity) FG [4, 5] [%] | relative activity for fructosyl glycine [4] [%] | Substrate specificity (% relative activity) FVH [1, 7] [%] | Substrate specificity (% relative activity) εFL [2, 8] [%] | Substrate specificity (% relative activity) FG [4, 8] [%]
1 | 70.1 | – | B1 | 165 | acted well on fructosyl valyl histidine but less on ε-fructosyl lysine | 100 | 61 | 100 | 65 | 39 | – | – | –
2 | 2.8 | 2.8 | B2 | 1023 | acted well on fructosyl valyl histidine but less on ε-fructosyl lysine | 100 | 9.78 | 100 | 1862 | 182 | 100 | 9.78 | 182
